Measured values: the DeepSol protein solubility set

Experiment: soluble on expression in E. coli; label from the status in PepcDB or PDB records

Sequence	soluble on expression in E. coli
MAASEAAVVSSPSLKTDTSPVLETAGTVAAMAATPSARAAAAVVAAAARTGSEARVSKAALATKLLSLSGVFAVHKPKGPTSAELLNRLKEKLLAEAGMPSPEWTKRKKQTLKIGHGGTLDSAARGVLVVGIGSGTKMLTSMLSGSKRYTAIGELGKATDTLDSTGRVTEEKPYDKITQEDIEGILQKFTGNIMQVPPLYSALKKDGQRLSTLMKRGEVVEAKPARPVTVYSISLQKFQPPFFTLDVECGGGFYIRSLVSDIGKELSSCANVLELTRTKQGPFTLEEHALPEDKWTIDDIAQSLEHCSSLFPAELALKKSKPESNEQVLSCEYITLNEPKREDDVIKTC	soluble
MAASTFFIPSVNVIGADSLTDAMNMMADYGFTRTLIVTDNMLTKLGMAGDVQKALEERNIFSVIYDGTQPNPTTENVAAGLKLLKENNCDSVISLGGGSPHDCAKGIALVAANGGDIRDYEGVDRSAKPQLPMIAINTTAGTASEMTRFCIITDEARHIKMAIVDKHVTPLLSVNDSSLMIGMPKSLTAATGMDALTHAIEAYVSIAATPITDACALKAVTMIAENLPLAVEDGSNAKAREAMAYAQFLAGMAFNNASLGYVHAMAHQLGGFYNLPHGVCNAVLLPHVQVFNSKVAAARLRDCAAAMGVNVTGKNDAEGAEACINAIRELAKKVDIPAGLRDLNVKEEDFAVLATNALKDACGFTNPIQATHEEIVAIYAAR	not soluble
MAAYQVLIVGAGFSGAETAFWLAQKGVRVGLLTQSLDAVMMPFLPPKPPFPPGSLLERAYDPKDERVWAFHARAKYLLEGLRPLHLFQATATGLLLEGNRVVGVRTWEGPPARGEKVVLAVGSFLGARLFLGGVVEEAGRLSEASYPDLLEDLSRLGFRFVEREGEVPETPSTPGYRVRYLAFHPEEWEEKTFRLKRLEGLYAVGLCVREGDYARMSEEGKRLAEHLLHELG	soluble
MACCLSEEAREQKRINQEIEKQLQRDKRNARRELKLLLLGTGESGKSTFIKQMRIIHGQGYSEEDKRAHIRLVYQNVFMAIQSMIRAMDTLDIKFGNESEELQEKAAVVREVDFESVTSFEEPYVSYIKELWEDSGIQECYDRRREYQLTDSAKYYLSDLRRLAVPDYLPTEQDILRVRVPTTGIIEYPFDLEQIIFRMVDVGGQRSERRKWIHCFENVTSIMFLVALSEYDQVLVECDNENRMEESKALFRTIITYPWFTNSSVILFLNKKDLLEEKILYSHLADYFPEYDGPPRDPIAAREFILKMFVDLNPDADKIIYSHFTCATDTENIRFVFAAVKDTILQHNLKEYNLV	not soluble
MACERLGGQSGAADVDAAAPAMAAVNLTLGFAGKTVLDQVSMGFPARAVTSLMGPTGSGKTTFLRTLNRMNDKVSGYRYSGDVLLGGRSIFNYRDVLEFRRRVGMLFQRPNPFPMSIMDNVLAGVRAHKLVPRKEFRGVAQARLTEVGLWDAVKDRLSDSPFRLSGGQQQLLCLARTLAVNPEVLLLDEPTSALDPTTTEKIEEFIRSLADRLTVIIVTHNLAQAARISDRAALFFDGRLVEEGPTEQLFSSPKHAETARYVAGLSGDVKDAKRGN	not soluble
MACFSSLSTGVLDMYDLIIVGGGPSGASAGRVAGKAGISTLLIEKENFPRYKPCGGALSPYALSCLDFKLPEYLIEKDISRIRVHFRELCTEMQKDYSIALLVSRKAFDNFLLDKARETGIDIHSGEKVLDCEEGEECVEVRTSQNTYLAKFVLIAEGSEGVLKYSVRKRKDRRTEYDLALVSEIPERDKVIRKRFPNAIDMHFGIASGGYGWIFPHSEHYSVGIVGTAEHLKHPKAVMQDFLQANGFSGDFQVHSHIIPVGGIKRKTISSRILLSGDAAGFVDAFIGEGISYAIRSGQLAAENVAEIVLYNRKLSDLKEYETSCRKEFGNFLSSSLKLEKAMHRFPETSFRLALSRKEIIDKYLEEVVINRSHKDYVRWLLLNFSLSEPASKIKSIKDKNQLEHHHHHH	not soluble
MADEVTIGFRFYPTEEELVSFYLRNQLEGRSDDSMHRVIPVLDVFEVEPSHLPNVAGVRCRGDAEQWFFFVPRQEREARGGRPSRTTGSGYWKATGSPGPVFSKDNKMIGAKKTMVFYTGKAPTGRKTKWKMNEYHAVDETVNASTIPKLRREFSLCRVYITTGSSRAFDRRPEGVLQTERMLTSDVAVAETSFRVESSLETSISGGEHIDVSMNTEFVDGLSEPMWDWEQLTWP	soluble
MADGPDKKRRKLTSALKDAIGAHSQKPEENIEKPIALALISDNKAAQDLLNKIQASRRPQAILEATLKICKEKKSEAHVDEAFLSIFRKHFSILGVDSALACWKLIEEHLNSSESINEIRIANEFISTSNLLGHGFGKLLQNMKQGIPVVIQNTWRQERKADALALAYPFLSLLLADQVYGDHQNLESLAEFWKNQVLPEKSMKKDFGMRMVSALAGGEPGQLPETKIDENQLEMLSKIYENHLEFYTGILSESTCSQLLAKVIEDNLAKNELKQLARRCQTAEVCMSPCIYYAMISVLRSTFDLNDSELIFIENLKTLKLKEITKHLPSIINSCSNTRQITASKKLKNLENLQDFLHNVTEKPENDNFSAAFALLSINISLIFDNWNFCEKILKTLPKDVLEKLIKAGKGSENENILKVFKKVAQEAAPVKFVNRTAADVAEKLREPEFAVAEALSLLQGVHTAETKKEVFDSVVKFVEEIPGAESIDEMKLFKLIIEMYGGSQLESLAVQVVFSRIAADGWTEMDRAPGTEKSDESWFTVLVETIDLLDIAMKSAKNSVLKSFTALFCQLFSQVLKNSQKFVRNSLNAVASRTLSPEMETEFVLRRHKLSQDLARLVDAMKRNESYFAMLTASIIGDAVFYGSDSLLAMSKLHSLADKNASALLATNLPVVERTRYKKFLSTITRASKRIY	not soluble
MADGQVHDELMMDQQQQQGVVPQQGDIHLSPIDKDLGDAALENNVRQYHLDGVVVSEGMKRMIIDLQRHWLSEYHASREKCLVELTEKLHQEFMMDQQKIRSELLQQFKDELEQTRADLENKHRENLKMESAKLNEKHKRELVASRKKQWCWSCDNEAIYHCCWNTAYCSVECQQGHWQTHRKFCRRKKGNNAPGAPSVPAPQQVGAPMPPQQQ	not soluble
MADHNDRGRQGEEIALKHLRQQGYQIEALNWQSGRRELDIVASTSRELVVVEVKTRTEGFLLAPEEAVDARKRRLISESAHHYVRMYAIDLPVRFDVISVVLSADGSCKRIEHRENAFPLLLKRSQRSTPRRRRL	not soluble
MADKKAPAAGWPVANGEYVVGNPESCVAVITLGSHGLDQAAIDAGAAISGPCHTENLGIEKVVANYISNPNIRFMVIAGSEVQGHITGQCIKALYENGIGDDGGIIGAKGAIPFMENVGKEPVGRLQTQVVECIDLIDVEDKGKIADAIKNCISKDPGAFEEDPMVIELEGGAAAAGDESTSIKPTSPEMALLEARMRIVSEKMNEAAMIAKFNSGYYNGK	not soluble
MADKKEKLFSDFSPVSTEQWMEKVTADLKGADFEKKLVWKTNEGFKVKPFYRMEDLEGLKTTDALPGEFPYLRGTKKSNNEWLVRQEIKVECPKEANAKALDILNKGVDSLSFHVKAKELNAEYIETLLNGIQAECVELNFSTCQGHVVELAGLLVAYFQKKDYDVKKLRGSVNYDFFNKMLTRGKEKGDMVQTAKALIEAIQPLPFYRVLNVNAISLNNAGAYISQELGYALAWGNEYMNQLTDAGIPAATVAKKIKFNFGISSNYFLEIAKFRAARMLWANIVASYHPECLRDCDNKGANGECRCAAKMAVHAETSTFNLTLFDAHVNLLRTQTEAMSAALAGVDSMTVVPFDKTYSTPDEFSERLARNQQLLLKEESHFDKVIDPAAGSYYIENLTVSIAKQAWELFLAVEEAGGFYAALKAGTVQAAVNESNKARHKAVAQRREVLLGTNQFPNFNEKAGEKQPIEAKCCCGGDAHTCEKDVDTLVFDRAASEFEALRLETEASGKRPKAFMLTIGNLAMRQARAQYSCNFLACAGYEVIDNLGFETVEAGVEAAMAAKADIVVLCSSDDEYAEYAVPAFKALDGRAMFIVAGAPACMDELKAAGIENFIHVRVNVLDTLKEFNAKLLK	not soluble
MADLSFIEDTVAFPEKEEDEEEEEEGVEWGYEEGVEWGLVFPDANGEYQSPINLNSREARYDPSLLDVRLSPNYVVCRDCEVTNDGHTIQVILKSKSVLSGGPLPQGHEFELYEVRFHWGRENQRGSEHTVNFKAFPMELHLIHWNSTLFGSIDEAVGKPHGIAIIALFVQIGKEHVGLKAVTEILQDIQYKGKSKTIPCFNPNTLLPDPLLRDYWVYEGSLTIPPCSEGVTWILFRYPLTISQLQIEEFRRLRTHVKGAELVEGCDGILGDNFRPTQPLSDRVIRAAFQLEHHHHHH	soluble
MAEKKKEEKESKETEVFILKLENTTVTFTNPKLGDEVTIASLNLTNPTKDRYAFKIKCTSNQLFKIKSPVGYINPEESLTIPVYHYPATVIPENNKHYFVVYYIKAANTVKEKIPVRDLWKAAASSEGTRRVFIDFKKPELPPTEAEDGKMGDDKKKGKKDDKKEEKDGKKDEKKDGSDEEGKKDEGKGEKKEEKKDDKKDDKKDDKKEEKKEDGAKK	soluble
MAEKSYTRFVINGKEQELKFCLQALRLLDENGGPMQFVSQTMQGGITNFTDVVYYALIHTNEGITYEAVQKEIENMFNAEKLDLDEILKYNKAVVLNSFFFQKTVKKLLGTMTAEQQKSFENLYA	not soluble
MAEKVAVIVGPTAVGKTKLGIALAKKLGGEVISGDSMQIYKGMDIGTAKVKPDEMEGIPHHLLDIKEPCEPFSVVEFQRLCRALITEISARGRLPIIVGGTGLYIQAALYDYQFSAAPSDEAYRRALKQLAAEQGAEALHRRLEAVDPISAARIHPHNIRRVIRALEVYHCTGKPFSEWQQTEKRLLYEAAIVGLTAEREALYRRINERVDEMIAAGLIEEARALYDRGLRDCQAVQAIGYKELYDYFDGRVSLDEAIEQLKQNSRRYAKRQLTWFRNQMPVKWFDMTDAGQFAAKVQEISRYVAGKLQLEANI	not soluble
MAELISFVVPTQSDKVLLVWDLSTGPPAEALSHSLFTVFSQFGLLYSVRVFPNAAVARPGFYAIIKFYSSRDAQRAQKACDGKPLFQTSPVKVRLGTRHKALQHQAFALNSSRCQELANYYFGFSGWSKRIIKLQELSGLEDAALAVPMQKGSPQFLCAVEVVLPPYGCRSPGVGISEEPLRQLEEGQSSFLMKRKTAQKLAFQAAVSDAFQKLTIVVLESGRIAVEYRPTAEDLDARSEEELQNLIQVSCSSWSQSSQREEECLSDFSLEEEDLKLCDPH	soluble
MAEPVQEELSVLAAIFCRPHEWEVLSRSETDGTVFRIHTKAEGFMDADIPLELVFHLPVNYPSCLPGISINSEQLTRAQCVTVKEKLLEQAESLLSEPMVHELVLWIQQNLRHILSQPETG	soluble
MAESDWDTVTVLRKKGPTAAQAKSKQAILAAQRRGEDVETSKKWAAGQNKQHSITKNTAKLDRETEELHHDRVTLEVGKVIQRGRQSKGLTQKDLATKINEKPQVIADYESGRAIPNNQVLGKIERAIGLKLRGKDIGKPIEKGPKAK	soluble
MAESPSQSDAQLVAHQSPGQQADSDLTSLVFDYKSVLCVYFFSHLLTVLKTNAIAEMSQQVQMGMENMLKMVYEIDQNSVGIKEEIEKSKDFAMEKKRILEEEKDQFQKAAYTILDMLSNSRG	soluble
MAESSVTFTISTDGGGKINVIYDGSHKTNATDSSVNSESVTPCESLDTTKESEMLKAGLRRRAPSISTESSVTFSSISDFEDLNLRCSTPLVCDDDTNSNSDASFASCVSEVSEMSIKTTSSQETVTSASGLKESKPMEKMEEKREVRMKSYEQVNKERYGGWTEVVNWRAAKKPQSVAPSQSSTKKTLSNNGTTTDHGITSASRRTPNSTHVASKPQLNTRATSVQGSAPSSGSKSRIPSLANRQVYNNSPQLFHPFPPSRCNSSNGSYASTVTASPSVASYSPNPSQPPPPVAVAKLNMKMTITTDSNGKMSVHFSNSNSSESWSINGLLGNSDKINVSKMF	not soluble
